Reference: US20020164667A1 (VEGENICS, published 2002)
Ends that are not written are not given here.

Target: T1, human VEGFR3-Fc fusion protein (human, UniProt P35916 25-329, limits assumed)
T1 construct: domain: first three Ig homology domain of the extracellular portion; Coated on microtiter wells at 1 ug/ml; not shown: Fc tail of human IgG1, cloned in frame after the VEGFR3 Ig homology domains
T1 sequence (looked up): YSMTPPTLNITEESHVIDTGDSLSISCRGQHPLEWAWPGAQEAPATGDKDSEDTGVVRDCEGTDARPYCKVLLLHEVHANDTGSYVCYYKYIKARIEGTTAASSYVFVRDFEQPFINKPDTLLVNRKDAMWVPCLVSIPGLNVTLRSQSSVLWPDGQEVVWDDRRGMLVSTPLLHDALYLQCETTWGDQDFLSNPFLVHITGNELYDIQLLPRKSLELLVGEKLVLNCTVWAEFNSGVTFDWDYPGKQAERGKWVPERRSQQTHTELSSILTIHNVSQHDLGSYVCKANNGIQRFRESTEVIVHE
Test: phage attachment assay, VEGFR3-Fc-coated versus BSA-blocked microtiter wells
Protocol: VEGFR3-Fc fusionprotein (1 μg/ml) was coated on microtiter wells (96-well plate) overnight at 4° C. Wells were then saturated with 5% BSA. In the first panning, the libraries were incubated overnight at 4° C. in 50 mM TBS buffer (Tris-HCl/0.1M NaCl, pH 7.5) containing 1% BSA. After extensive washing, the bounded phages were eluted with a low pH buffer (0.1M glycine-HCl, 0.1%BSA, 0.05% phenol red, pH2.2)(Koivunen et al., Methods Mol. Biol. 129:3-17,1999; Koivunenet al, Biotechnol., 18(8):768-74,1999; Smoth et al., Methods Enzymol., 217:228-357, 1993). In subsequent pannings, the amplified phages using the K91kan E. coli.(Koivunen et al., Methods Mol. Biol. 129:3-17, 1999) were allowed to bind for 1 h at room temperature. Randomly selected clones from the fourth round of panning were amplified overnight and sequenced using ABIPRISM 310 Genetic Analyzer. The binding of each clone to VEGFR-3 was verified by an attachment assay, in which the cloned phage were incubated for 60 minutes in VEGFR3-Fc-coated or BSA-blocked microtiter wells. Thewells were washed ten times with TBS containing 0.5% Tween-20. The bound phages were titered by calculating the number of colonies.

SAVFRGRWL (also called X9 library clone) [SAVFRGRWL (SEQ ID NO: 42)]
binding result: binds

WFSASLRFR (also called X9 library clone) [WFSASLRFR (SEQ ID NO: 43)]
binding result: binds

CWQLGRNWIC (also called CX8C library clone) [CWQLGRNWIC (SEQ ID NO: 55)]
binding result: binds

CVEVQITQEC (also called CX8C library clone) [CVEVQITQEC (SEQ ID NO: 56)]
binding result: binds

CAGKASSLWC (also called CX8C library clone) [CAGKASSLWC (SEQ ID NO: 57)]
binding result: binds

CRALDSALAC (also called CX8C library clone) [CRALDSALAC (SEQ ID NO: 58)]
binding result: binds

CYGFEAAWC (also called CX7C library clone) [CYGFEAAWC (SEQ ID NO: 59)]
binding result: binds

B1: CYGFLWGMC (SEQ ID NO: 60) (peptide)
peptide: CYGFLWGMC
modifications: not fully specified (bridges); cysteine pairing not given here; also: displayed on fUSE5 phage as coat protein fusion, flanking residues not given here
notes: also called CX7C library clone
binding result: binds

CSRWRILGC (also called CX7C library clone) [CSRWRILGC (SEQ ID NO: 61)]
binding result: binds

CHKWQKRQC (also called CX7C library clone) [CHKWQKRQC (SEQ ID NO: 62)]
binding result: binds

CMDPWGGWC (also called CX7C library clone) [CMDPWGGWC (SEQ ID NO: 63)]
binding result: binds

CRKVWDIRC (also called CX7C library clone) [CRKVWDIRC (SEQ ID NO: 64)]
binding result: binds

CVWDHGVC [CVWDHGVC (SEQ ID NO: 65)]
binding result: binds

CGQMCTVWCSSGC (also called CX3CX3CX3C library clone) [CGQMCTVWCSSGC (SEQ ID NO: 66)]
binding result: binds

SGYWWDTWF (also called X9 library clone) [SGYWWDTWF (SEQ ID NO: 36)]
binding result: binds

SCYWRDTWF (also called X9 library clone) [SCYWRDTWF (SEQ ID NO: 37)]
binding result: binds

KVGWSSPDW (also called X9 library clone) [KVGWSSPDW (SEQ ID NO: 38)]
binding result: binds

FVGWTKVLG (also called X9 library clone) [FVGWTKVLG (SEQ ID NO: 39)]
binding result: binds

YSSSMRWRH (also called X9 library clone) [YSSSMRWRH (SEQ ID NO: 40)]
binding result: binds

RWRGNAYPG (also called X9 library clone) [RWRGNAYPG (SEQ ID NO: 41)]
binding result: binds
